Data reported in patent US20190062426A1.

B1: 5F11-28Z CAR (protein)
chain: DIQMTQSPTSLSASVGDRVTITCRASQGISSWLTWYQQKPEKAPKSLIYAASSLQSGVPSRFSGSGSGTDFTLTISSLQPEDFATYYCQQYDSYPITFGQGTRLEIKGSTSGSGKPGSGEGSTKGQVQLQQWGAGLLKPSETLSLTCAVYGGSFSAYYWSWIRQPPGKGLEWIGDINHGGGTNYNPSLKSRVTISVDTSKNQFSLKLNSVTAADTAVYYCASLTAYWGQGSLVTVSSIEVMYPPPYLDNEKSNGTIIHVKGKHLCPSPLFPGPSKPFWVLVVVGGVLACYSLLVTVAFIIFWVRSKRSRLLHSDYMNMTPRRPGPTRKHYQPYAPPRDFAAYRSRVKFSRSADAPAYQQGQNQLYNELNLGRREEYDVLDKRRGRDPEMGGKPRRKNPQEGLYNELQKDKMAEAYSEIGMKGERRRGKGHDGLYQGLSTATKDTYDALHMQALPPR

Molecular target: human CD30 (tumor necrosis factor receptor superfamily, member 8 (TNFRSF8)) (human) (UniProt P28908)
Assay: cell-based or functional assay

Sequence of UniProt P28908 (P28908 19-595): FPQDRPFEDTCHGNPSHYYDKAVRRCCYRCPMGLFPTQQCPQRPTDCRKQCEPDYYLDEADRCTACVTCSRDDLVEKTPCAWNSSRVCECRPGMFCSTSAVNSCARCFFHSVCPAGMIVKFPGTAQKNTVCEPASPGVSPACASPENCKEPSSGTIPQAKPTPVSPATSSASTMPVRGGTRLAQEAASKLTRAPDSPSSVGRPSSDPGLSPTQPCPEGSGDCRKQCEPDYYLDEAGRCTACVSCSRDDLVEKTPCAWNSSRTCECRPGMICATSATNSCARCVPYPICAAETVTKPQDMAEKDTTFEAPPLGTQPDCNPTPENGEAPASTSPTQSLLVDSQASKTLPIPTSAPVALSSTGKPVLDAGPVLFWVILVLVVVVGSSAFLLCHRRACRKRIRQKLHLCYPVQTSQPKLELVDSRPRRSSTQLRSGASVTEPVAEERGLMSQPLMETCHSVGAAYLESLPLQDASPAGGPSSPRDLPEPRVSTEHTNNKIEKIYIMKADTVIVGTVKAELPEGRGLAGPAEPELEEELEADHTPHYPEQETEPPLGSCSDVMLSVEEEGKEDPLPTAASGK

| Molecule | CD107a degranulation, % CD8+CD107a+ cells after 4 h with CD30-bv173 cells (% of live CD3+ lymphocytes) | CD107a degranulation, % CD8-CD107a+ cells after 4 h with CD30-bv173 cells (% of live CD3+ lymphocytes) | antigen-specific IFNγ production on culture with CD30+ HH lymphoma cells | IFNγ released (ELISA) after overnight culture with CD30+ HDLM-2 cells [pg/mL] | IFNγ released (ELISA) after overnight culture with CD30+ SUDHL-1 cells [pg/mL] | CD107a degranulation, % CD8+CD107a+ cells after 4 h with CD30+ SUDHL-1 cells (% of live CD3+ lymphocytes) | CD107a degranulation, % CD8-CD107a+ cells after 4 h with CD30+ SUDHL-1 cells (% of live CD3+ lymphocytes) | IFNγ released (ELISA) on co-culture with CD30+ HH cells [pg/mL] | IFNγ released (ELISA) on co-culture with CD30+ SUDHL-1 cells [pg/mL] | IFNγ released (ELISA) on co-culture with CD30-bv173 cells [pg/mL] | IFNγ released (ELISA) on overnight culture with CD30+ HH cells, 0 µg/mL soluble human CD30 protein added [pg/mL] | IFNγ released (ELISA) on overnight culture with CD30+ HH cells, 0.2 µg/mL soluble human CD30 protein added [pg/mL] | IFNγ released (ELISA) on overnight culture with CD30+ HH cells, 1 µg/mL soluble human CD30 protein added [pg/mL] | IFNγ released (ELISA) on overnight culture with CD30+ HH cells, 5 µg/mL soluble human CD30 protein added [pg/mL] |
| --- | --- | --- | --- | --- | --- | --- | --- | --- | --- | --- | --- | --- | --- | --- |
| 5F11-CD8BBZ CAR | 25.9 | 12.1 | 47700 |  |  |  |  |  |  |  |  |  |  |  |
| 5F11-CD828Z CAR | 30 | 11.6 | 34300 | 3010 | 2300 |  |  |  |  |  |  |  |  |  |
| AC10-28Z CAR |  |  |  |  |  | 6.18 | 1.34 | 8140 | 4850 | 538 |  |  |  |  |
| XmAb2513-28Z CAR |  |  |  |  |  | 7.72 | 1.86 | 4700 | 2440 | 388 |  |  |  |  |
| B1 | 39.5 | 6.82 | 127000 | 3530 | 3490 | 47.4 | 4.32 | 78600 | 25500 | 3780 | 23000 | 18400 | 19900 | 18700 |
